In patent publication US20030040012A1, “Method of detecting protein-protein interaction” (priority 2000, published 2003):
Substitutions are numbered along the chain they refer to. In names and notes the source's numbering stands. Each block holds one molecule with its values, some of them ahead of it.

Columns and labels:
[1] = target: T1, Npw38 (Homo sapiens, UniProt O60828, W52A); experiment: Npw38-NpwBP binding detection by intracellular localization of GFP fluorescence in COS7 cells; type: cell-based; conditions: expressed in place of HA-Npw38 together with NpwBP-GFP
T1 construct: expressed in transfected cells; host or cells: COS7 (monkey kidney)
T1 sequence (O60828 2-265 W52A): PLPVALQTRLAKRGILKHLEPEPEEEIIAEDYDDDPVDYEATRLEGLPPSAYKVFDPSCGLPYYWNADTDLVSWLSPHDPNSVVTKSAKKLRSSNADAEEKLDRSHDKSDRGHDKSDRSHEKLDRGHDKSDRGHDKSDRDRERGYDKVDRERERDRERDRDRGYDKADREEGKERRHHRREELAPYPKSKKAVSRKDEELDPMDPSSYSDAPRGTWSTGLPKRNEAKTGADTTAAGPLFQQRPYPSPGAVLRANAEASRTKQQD
Description: Monkey kidney-derived, cultured cell COS7 was incubated in a 10% fetal calf serum-containing Dulbecco's modified Eagle's medium (DMEM) in the presence of 5% CO2 at 37° C. COS7 cells of 1=10^5 were placed in a 6-well plate (from Nunk, having a well diameter of 3 cm), and further incubated therein in the presence of 5% CO2 at 37° C. for 22 hours. After the medium was removed, the cell sur were washed with a phosphate buffer solution (PBS), and then further washed with a 50 mM Tris-HCl (pH 7.5)-containing DMEM. To these cells, added was a suspension comprising 1 μl of a plasmid suspension, 0.6 ml of DMEM and 3 μl of TRANSFECTAM™ (from IBF), and incubated in the presence of 5% CO2 at 37° C. for 12 hours. Then, the cells were washed with PBS, and fixed with 4% peraformaldehyde-containing PBS at room temperature for 10 minutes. The thus-fixed cells were washed with PBS, then treated with 0.2% Triton X-100, and thereafter blocked with 5% milk PBS. This was reacted with an anti-HA antibody for 45 minutes, then washed with PBS, and reacted with a rhodamine-binding secondary antibody for 45 minutes. […]
First, pKA1-NpwBP(P1)-GFP or pKA1-NpwBP(P2)-GFP was singly introduced into COS7 cells, and the localization of these fusion proteins in the cells was checked through fluorescence microscopy based on the green fluorescence of GFP as the index thereof. […]

[2] = target: T2, binding of Npw38 to NpwBP(P2)-GFP (Homo sapiens, UniProt O60828); experiment: Detection of binding-inhibitory action on intranuclear localization of NpwBP(P2)-GFP; type: cell-based; conditions: COS7 cells, NpwBP of more than NpwBP(P2)-GFP co-expressed along with Npw38 and NpwBP(P2)-GFP
T2 construct: expressed in transfected cells; host or cells: COS7 (monkey kidney)
T2 sequence (O60828 1-265): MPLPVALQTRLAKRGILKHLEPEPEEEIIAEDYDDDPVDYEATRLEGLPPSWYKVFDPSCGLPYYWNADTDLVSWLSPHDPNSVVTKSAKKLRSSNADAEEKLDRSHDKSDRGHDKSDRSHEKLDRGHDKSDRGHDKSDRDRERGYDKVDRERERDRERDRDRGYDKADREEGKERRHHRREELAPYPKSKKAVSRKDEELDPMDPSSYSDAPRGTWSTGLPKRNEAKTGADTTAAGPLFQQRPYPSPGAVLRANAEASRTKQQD
Description: Monkey kidney-derived, cultured cell COS7 was incubated in a 10% fetal calf serum-containing Dulbecco's modified Eagle's medium (DMEM) in the presence of 5% CO2 at 37° C. COS7 cells of 1=10^5 were placed in a 6-well plate (from Nunk, having a well diameter of 3 cm), and further incubated therein in the presence of 5% CO2 at 37° C. for 22 hours. After the medium was removed, the cell sur were washed with a phosphate buffer solution (PBS), and then further washed with a 50 mM Tris-HCl (pH 7.5)-containing DMEM. To these cells, added was a suspension comprising 1 μl of a plasmid suspension, 0.6 ml of DMEM and 3 μl of TRANSFECTAM™ (from IBF), and incubated in the presence of 5% CO2 at 37° C. for 12 hours. Then, the cells were washed with PBS, and fixed with 4% peraformaldehyde-containing PBS at room temperature for 10 minutes. The thus-fixed cells were washed with PBS, then treated with 0.2% Triton X-100, and thereafter blocked with 5% milk PBS. This was reacted with an anti-HA antibody for 45 minutes, then washed with PBS, and reacted with a rhodamine-binding secondary antibody for 45 minutes.
In the system of the above (2), NpwBP of more than NpwBP(P2)-GFP was co-expressed in the cells along with Npw38 and NpwBP(P2)-GFP. In this case, the intranuclear localization of NpwBP(P2)-GFP was inhibited. […]

intranuclear localization of the green fluorescence of NpwBP-GFP [1]: no intranuclear localization
B1: Npw38(W52A): a WW domain variant of Npw38 (protein)
chain: T2 sequence (O60828 1-265) with W52A

intranuclear localization of NpwBP(P2)-GFP [2]: inhibited
B2: NpwBP: nuclear protein (SEQ ID NO: 2) that binds to Npw38 (protein, listed as Homo sapiens)
chain: MGRRSTSSTKSGKFMNPTDQARKEARKRELKKNKKQRMMVRAAVLKMKDPKQIIRDMEKLDEMEFNPVQQPQLNEKVLKDKRKKLRETFERILRLYEKENPDIYKELRKLEVEYEQKRAQLSQYFDAVKNAQHVEVESIPLPDMPHAPSNILIQDIPLPGAQPPSILKKTSAYGPPTRAVSILPLLGHGVPRLPPGRKPPGPPPGPPPPQVVQMYGRKVGFALDLPPRRRDEDMLYSPELAQRGHDDDVSSTSEDDGYPEDMDQDKHDDSTDDSDTDKSDGESDGDEFVHRDNGERDNNEEKKSGLSVRFADMPGKSRKKKKNMKELTPLQAMMLRMAGQEIPEEGREVEEFSEDDDEDDSDDSEAEKQSQKQHKEESHSDGTSTASSQQQAPPQSVPPSQIQAPPMPGPPPLGPPPAPPLRPPGPPTGLPPGPPPGAPPFLRPPGMPGLRGPLPRLLPPGPPPGRPPGPPPGPPPGLPPGPPPRGPPPRLPPPAPPGIPPPRPGMMRPPLVPPLGPAPPGLFPPAPLPNPGVLSAPPNLIQRPKADDTSAATIEKKATATISAKPQITNPKAEITRFVPTALRVRRENKGATAAPQRKSEDDSAVPLAKAAPKSGPSVPVSVQTKDDVYEAFMKEMEGLL
